Reference: patent US20240261333A1, “NOVEL TARGETS FOR ENHANCING ANTI-TUMOR IMMUNITY” (THE BROAD INSTITUTE, INC., priority 2021, published 2024)

Molecular target: T1, B3GNT2 (Homo sapiens, UniProt Q9NY97)
T1 construct: The respective ORFs of candidate genes [CD274 (NM_014143), MCL1 (NM_021960), JUNB (NM_002229), and B3GNT2 (NM_006577)] were synthesized; expressed in transfected cells; host or cells: A375 melanoma cells (lentiviral ORF overexpression)
T1 sequence (Q9NY97 1-397): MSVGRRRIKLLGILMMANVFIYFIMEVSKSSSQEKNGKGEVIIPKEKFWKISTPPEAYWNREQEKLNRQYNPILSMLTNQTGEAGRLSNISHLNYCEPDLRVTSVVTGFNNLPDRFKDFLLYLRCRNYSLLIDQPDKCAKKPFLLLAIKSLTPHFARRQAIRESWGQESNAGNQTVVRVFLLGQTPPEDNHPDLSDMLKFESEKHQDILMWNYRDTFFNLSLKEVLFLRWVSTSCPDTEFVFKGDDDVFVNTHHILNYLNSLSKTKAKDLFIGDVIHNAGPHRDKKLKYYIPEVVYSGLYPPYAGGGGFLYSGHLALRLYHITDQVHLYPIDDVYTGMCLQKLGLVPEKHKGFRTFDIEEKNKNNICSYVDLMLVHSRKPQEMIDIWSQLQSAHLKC
Test: Co-IP of FLAG-tagged B3GNT2 followed by mass spectrometry
Assay type: cell-based
Design: C-term IgG / C-term flag: unit not given here
Details: mass spectrometry count, unit not given; for C-term flag / N-term FLAG: Co-IP with FLAG antibody; for C-term flag / C-term IgG: C-terminally FLAG-tagged B3GNT2; for N-term FLAG / N-term IgG: N-terminally FLAG-tagged B3GNT2; for C-term IgG / N-term IgG: Co-IP with IgG control antibody
Outline: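 Co-purifying proteins were identified by fractionated nano-LC–MS/MS on an Orbitrap Elite, run data-dependent. Beforehand, lysates in 1% Triton X-100/HEPES buffer were incubated overnight at 4° C with anti-FLAG or […] and pulled down on Protein A/G magnetic beads for 4 h. Duplicate biological replicates.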

Molecule | C-term flag | N-term FLAG | C-term IgG | N-term IgG
SLC25A3 (protein) AVEEQYSCDYGSGRFFILCGLGGIISCGTTHTALVPLDLVKCRMQVDPQKYKGIFNGFSVTLKEDGVRGLAKGWAPTFLGYSMQGLCKFGFYEVFKVLYSNMLGEENTYLWRTSLYLAASASAEFFADIALAPMEAAKVRIQTQPGYANTLRDAAPKMYKEEGLKAFYKGVAPLWMRQIPYTMMKFACFERTVEALYKFVVPKPRSECSKPEQLVVTFVAGYIAGVFCAIVSHPADSVVSVLNKEKGSSASLVLKRLGFKGVWKGLFARIIMIGTLTALQWFIYDSVKVYFRLPRPPPPEMPESLKKKLGLTQ | 9 | 4 | 0 | 0
HSPH1 (protein) SVVGLDVGSQSCYIAVARAGGIETIANEFSDRCTPSVISFGSKNRTIGVAAKNQQITHANNTVSNFKRFHGRAFNDPFIQKEKENLSYDLVPLKNGGVGIKVMYMGEEHLFSVEQITAMLLTKLKETAENSLKKPVTDCVISVPSFFTDAERRSVLDAAQIVGLNCLRLMNDMTAVALNYGIYKQDLPSLDEKPRIVVFVDMGHSAFQVSACAFNKGKLKVLGTAFDPFLGGKNFDEKLVEHFCAEFKTKYKLDAKSKIRALLRLYQECEKLKKLMSSNSTDLPLNIECFMNDKDVSGKMNRSQFEELCAELLQKIEVPLYSLLEQTHLKVEDVSAVEIVGGATRIPAVKERIAKFFGKDISTTLNADEAVARGCALQCAILSPAFKVREFSVTDAVPFPISLIWNHDSEDTEGVHEVFSRNHAAPFSKVLTFLRRGPFELEAFYSDPQGVPYPEAKIGRFVVQNVSAQKDGEKSRVKVKVRVNTHGIFTISTASMVEKVPTEENEMSSEADMECLNQRPPENPDTDANEKKVDQPPEAKKPKIKVVNVELPIEANLVWQLGKDLLNMYIETEGKMIMQDKLEKERNDAKNAVEEYVYEFRDKLCGPYEKFICEQDHQNFLRLLTETEDWLYEEGEDQAKQAYVDKLEELMKIGTPVKVRFQEAEERPKMFEELGQRLQHYAKIAADFRNKDEKYNHIDESEMKKVEKSVNEVMEWMNNVMNAQAKKSLDQDPVVRAQEIKTKIKELNNTCEPVVTQPKPKIESPKLERTPNGPNIDKKEEDLEDKNNFGAEPPHQNGECYPNEKNSVNMDLD | 7 | 8 | 0 | 0
SERPINE2 (protein) SHFNPLSLEELGSNTGIQVFNQIVKSRPHDNIVISPHGIASVLGMLQLGADGRTKKQLAMVMRYGVNGVGKILKKINKAIVSKKNKDIVTVANAVFVKNASEIEVPFVTRNKDVFQCEVRNVNFEDPASACDSINAWVKNETRDMIDNLLSPDLIDGVLTRLVLVNAVYFKGLWKSRFQPENTKKRTFVAADGKSYQVPMLAQLSVFRCGSTSAPNDLWYNFIELPYHGESISMLIALPTESSTPLSAIIPHISTKTIDSWMSIMVPKRVQVILPKFTAVAQTDLKEPLKVLGITDMFDSSKANFAKITTGSENLHVSHILQKAKIEVSEDGTKASAATTAILIARSSPPWFIVDRPFLFFIRHNPTGAVLFMGQINKP | 11 | 4 | 0 | 0
